Measurements reported in US20240059766A1 (VOYAGER THERAPEUTICS, published 2024).
Residue numbers refer to the chain shown, from its start. One block for each binder: values may come before it. Non-standard residues stand in square brackets, D forms with d. No end group written: not given here. pT = C[C@@H](OP(=O)(O)O)[C@H](N)C(=O)O

Tests used:
[1] = target: T1, Tau191-214 phospho-peptide (pS199) (human, pS199 (phosphoserine); SCBio-4PEG in the ELISA); assay: BLI
T1 construct: also called pS199 peptide

[2] = target: T2, AT8 peptide (amino acids 195-215 of tau) (human, phospho-peptide; the phosphorylated sites are not stated; immobilized on streptavidin biosensor tips); assay: BLI (Octet), peptide on streptavidin tip
T2 peptide: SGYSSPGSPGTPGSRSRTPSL
Method: Briefly, phospho-peptides were immobilized on streptavidin biosensor tips and the binding ability of each antibody was assessed using an eight-point concentration gradient.

[3] = target: Tau191-214 phospho-peptide (pS199/pS202) (human, pS199, pS202; SCBio-4PEG in the ELISA); assay: one point ELISA
Source text: (§1) One-point ELISA was used to determine differential binding based on the individual phosphorylation patterns of each peptide. OD values (450 nm) were collected (as shown in Table 13), where a stronger positive signal is shown as a higher OD value, which is indicative of increased binding.

[4] = target: Tau191-214 phospho-peptide (pS202) (human, pS202 (phosphoserine); SCBio-4PEG in the ELISA); assay: one point ELISA
Source text: as §1

[5] = target: T3, SCBio-4PEG-Peptide (Tau191-214) pS199-old (human, pS199; SCBio-4PEG at the peptide as in the table head); assay: one point ELISA
T3 construct: the suffix old is not explained
T3 sequence (peptide, as listed by the source): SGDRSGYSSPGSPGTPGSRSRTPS
Source text: as §1

[6] = target: Tau191-214 phospho-peptide (pS199/pT205) (human, pS199, pT205; SCBio-4PEG in the ELISA); assay: one point ELISA
Source text: as §1

[7] = target: Tau191-214 phospho-peptide (pT205) (human, pT205 (phosphothreonine); SCBio-4PEG in the ELISA); assay: one point ELISA
Source text: as §1

[8] = target: T1, Tau191-214 phospho-peptide (pS199); assay: one point ELISA
Source text: as §1

iPHF = iPHF (UniProt P10636-8 2-441); assay: BLI (Octet), antibody on biosensor tip
iPHF, sequence (P10636 other isoform, or with tags, fused parts or gaps): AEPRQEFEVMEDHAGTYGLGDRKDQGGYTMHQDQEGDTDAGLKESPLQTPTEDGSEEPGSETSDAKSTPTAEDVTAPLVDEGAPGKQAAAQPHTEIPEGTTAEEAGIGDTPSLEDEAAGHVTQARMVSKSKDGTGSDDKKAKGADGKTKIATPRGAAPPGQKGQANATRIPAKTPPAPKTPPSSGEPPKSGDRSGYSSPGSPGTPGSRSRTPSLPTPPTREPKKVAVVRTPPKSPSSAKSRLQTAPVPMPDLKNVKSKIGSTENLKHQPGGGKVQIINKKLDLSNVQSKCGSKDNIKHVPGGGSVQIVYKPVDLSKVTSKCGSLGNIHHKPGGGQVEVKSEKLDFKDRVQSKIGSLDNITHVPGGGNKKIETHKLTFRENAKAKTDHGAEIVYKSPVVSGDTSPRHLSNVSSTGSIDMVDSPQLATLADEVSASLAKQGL
Method: Anti-human tau antibodies were assessed for affinity for iPHF by Octet (ForteBio, Menlo Park, CA) analysis. A set of recombinant human IgG1 antibodies were prepared with clone-specific variable domain pairs selected from those presented in Table 1 and human IgG1 constant domains. Candidate antibodies were immobilized on biosensor tips (ForteBio) in kinetic buffer (ForteBio). Biosensor tips were then washed before introduction of a solution of iPHF in kinetic buffer for analysis of association and dissociation with candidate antibodies.

[9] = target: T4, Enriched paired helical filament (ePHF; sarkosyl insoluble tau) (human, UniProt P10636 2-758, pathological (hyperphosphorylated) tau isolated from brain; sites not stated); assay: direct ELISA, coated antigen
T4 construct: aggregate isolated from AD frontal cortical tissue
T4 sequence (P10636 other isoform, or with tags, fused parts or gaps limits assumed): as the sequence (P10636 other isoform, or with tags, fused parts or gaps) above
Method: A set of recombinant human IgG1 antibodies were prepared with clone-specific variable domain pairs selected from those presented in Table 1 and human IgG1 constant domains. These candidate antibodies were analyzed for binding to ePHF and specificity for ePHF over wild type tau by direct ELISA.
For direct ePHF and wildtype tau ELISA, plates were first coated with ePHF or wild type tau. Antigen solutions were prepared in PBS and 50 μL were pipetted into each well. Plates were covered and incubated for one hour at 37° C. or overnight at 4° C. Plates were then washed and blocked by addition of 150 μl of blocking buffer to each well and incubated one hour at room temperature. Plates were then washed before addition of serially diluted candidate antibody samples prepared in blocking buffer. Detection of candidate antibody binding was carried out by washing plates and adding a solution of enzyme-labeled secondary antibody in blocking buffer to each well. Secondary antibody binding was detected by addition of substrate and spectrophotometric analysis of resulting reaction product.

[10] = target: T5, AT270 peptide (pT181; Tau172-186) (human); assay: one point ELISA
T5 peptide: PAKTPPAPK[pT]PPSSG

binding result [1]: no binding
Kd [2]: 0.0124 nM
OD450 [3]: 0.082 OD450 nm
OD450 [4]: 0.065 OD450 nm
OD450 [5]: 0.062 OD450 nm
OD450 [6]: 0.119 OD450 nm
OD450 [7]: 0.06 OD450 nm
OD450 [8]: 0.065 OD450 nm
Kd (iPHF): 4.6 nM
EC50 [9]: 0.06 nM
B1: VY003 (antibody, V domains shown)
VH: EVQMVESGGGLVQPGGSLTLSCAASGFTFSSYRMNWVRQAPGKGLEWVSYISSSRSAIYYADSVKGRFTISRDNAKNSLYLQMNSLRDEDTAVYYCATLGIGYWGQGTLVTVSS
VL: DIVMTQTPLSSPVTLGQPASISCRSSQSLVHSDGNTYLSWLQQRPGQPPRLLIYKISNRFSGVPDRFSGSGAGTDFTLKITRVEAEDVGIYYCMQVTQFPRTFGQGTKVEIR

binding result [10]: no binding
Kd [2]: 0.0089 nM
OD450 [4]: 0.06 OD450 nm
OD450 [7]: 0.06 OD450 nm
Kd (iPHF): 2 nM
EC50 [9]: 0.03 nM
B2: VY011 (antibody, V domains shown)
VH: QVQLQESGPGLVKPSETLSLTCTVSGGSISNYYWTWIRQPAGKGLEWIGRVYTSGSANYNPSLKSRVTMSVDTSKNQFSLTLSSVTAADTAVYYCARDRGLYYWGQGTLVTVSS
VL: B1 VL with P12L, N58K, S61F, T81N, V96A, R101L, Q105G, R112K
